In the supplement of paper PMC10567573:

B1: USP39 (parent)
chain: FQGSMRIFTKKLPHPDLPAEEKEQ
B2: FBXO3 (parent)
chain: HDPLWRRHCKKYWLISEEEKTQKN

Variants of: B1
Assay: protein stability index of a GFP-peptide fusion (GPS, HEK-293T) (PSI 1-6); higher = more stable
Conditions: c terminus: a fixed tail appended
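Also: lentivirally expressed fusions sorted by FACS into six bins by GFP to DsRed ratio, PSI derived from sequencing read proportions per bin multiplied by bin number.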

| Variant | protein stability index |
| --- | --- |
| FQGSMRIFTKKLPHPDLPAEEKEM [Q24M] | 2.05 |
| FQGSMRIFTKKLPHPDLPAEEKED [Q24D] | 2.32 |
| FQGSMRIFTKKLPHPDLPAEEKEY [Q24Y] | 1.62 |
| FQGSMRIFTKKLPHPDLPAEEKES [Q24S] | 2.14 |
| FQGSMRIFTKKLPHPDLPAEEKEC [Q24C] | 2.15 |
| FQGSMRIFTKKLPHPDLPAEEKEL [Q24L] | 1.91 |
| FQGSMRIFTKKLPHPDLPAEEKEW [Q24W] | 1.33 |
| FQGSMRIFTKKLPHPDLPAEEKEF [Q24F] | 1.87 |
| FQGSMRIFTKKLPHPDLPAEEKER [Q24R] | 2.15 |
| FQGSMRIFTKKLPHPDLPAEEKEP [Q24P] | 1.83 |
| FQGSMRIFTKKLPHPDLPAEEKEK [Q24K] | 2.37 |
| FQGSMRIFTKKLPHPDLPAEEKEV [Q24V] | 1.52 |
| FQGSMRIFTKKLPHPDLPAEEKEN [Q24N] | 2.12 |
| FQGSMRIFTKKLPHPDLPAEEKEA [Q24A] | 2.05 |
| FQGSMRIFTKKLPHPDLPAEEKEG [Q24G] | 2.42 |
| FQGSMRIFTKKLPHPDLPAEEKEI [Q24I] | 2.13 |
| FQGSMRIFTKKLPHPDLPAEEKEH [Q24H] | 2.05 |

| Variant | protein stability index |
| --- | --- |
| FQGSMRIFTKKLPHPDLPAEEKET [Q24T] | 2.1 |
| FQGSMRIFTKKLPHPDLPAEEKEE [Q24E] | 1.81 |
| FQGSMRIFTKKLPHPDLPAEEKVQ [E23V] | 1.47 |
| FQGSMRIFTKKLPHPDLPAEEKPQ [E23P] | 1.84 |
| FQGSMRIFTKKLPHPDLPAEEKGQ [E23G] | 2.21 |
| FQGSMRIFTKKLPHPDLPAEEKLQ [E23L] | 1.69 |
| FQGSMRIFTKKLPHPDLPAEEKIQ [E23I] | 1.57 |
| FQGSMRIFTKKLPHPDLPAEEKHQ [E23H] | 2.18 |
| FQGSMRIFTKKLPHPDLPAEEKRQ [E23R] | 1.71 |
| FQGSMRIFTKKLPHPDLPAEEKQQ [E23Q] | 1.64 |
| FQGSMRIFTKKLPHPDLPAEEKYQ [E23Y] | 1.66 |
| FQGSMRIFTKKLPHPDLPAEEKNQ [E23N] | 2.1 |
| FQGSMRIFTKKLPHPDLPAEEKKQ [E23K] | 1.84 |
| FQGSMRIFTKKLPHPDLPAEEKWQ [E23W] | 2.19 |
| FQGSMRIFTKKLPHPDLPAEEKTQ [E23T] | 1.61 |
| FQGSMRIFTKKLPHPDLPAEEKMQ [E23M] | 1.85 |
| FQGSMRIFTKKLPHPDLPAEEKSQ [E23S] | 1.98 |

Variants of: B2
Assay: as above
Conditions: c terminus: a fixed tail appended

| Variant | protein stability index |
| --- | --- |
| HSPLWRRHCKKYWLISEEEKTQKN [D2S] | 1.81 |
| HNPLWRRHCKKYWLISEEEKTQKN [D2N] | 2.78 |
| HPPLWRRHCKKYWLISEEEKTQKN [D2P] | 3.13 |
| HAPLWRRHCKKYWLISEEEKTQKN [D2A] | 2.58 |
| HCPLWRRHCKKYWLISEEEKTQKN [D2C] | 2.26 |
| HRPLWRRHCKKYWLISEEEKTQKN [D2R] | 2.86 |
| HWPLWRRHCKKYWLISEEEKTQKN [D2W] | 1.97 |
| HGPLWRRHCKKYWLISEEEKTQKN [D2G] | 1.62 |
| HQPLWRRHCKKYWLISEEEKTQKN [D2Q] | 2.91 |
| HYPLWRRHCKKYWLISEEEKTQKN [D2Y] | 2.56 |
| HKPLWRRHCKKYWLISEEEKTQKN [D2K] | 2.58 |
| HLPLWRRHCKKYWLISEEEKTQKN [D2L] | 2.24 |
| HFPLWRRHCKKYWLISEEEKTQKN [D2F] | 2.33 |
| HMPLWRRHCKKYWLISEEEKTQKN [D2M] | 2.63 |
| HIPLWRRHCKKYWLISEEEKTQKN [D2I] | 2.25 |
| HHPLWRRHCKKYWLISEEEKTQKN [D2H] | 2.18 |
| HTPLWRRHCKKYWLISEEEKTQKN [D2T] | 1.87 |
| HVPLWRRHCKKYWLISEEEKTQKN [D2V] | 1.97 |
| HEPLWRRHCKKYWLISEEEKTQKN [D2E] | 2.62 |
| HDPLWRRPCKKYWLISEEEKTQKN [H8P] | 3.4 |

| Variant | protein stability index |
| --- | --- |
| HDPLWRRNCKKYWLISEEEKTQKN [H8N] | 3.15 |
| HDPLWRRYCKKYWLISEEEKTQKN [H8Y] | 2.2 |
| HDPLWRRLCKKYWLISEEEKTQKN [H8L] | 1.88 |
| HDPLWRRFCKKYWLISEEEKTQKN [H8F] | 1.73 |
| HDPLWRRDCKKYWLISEEEKTQKN [H8D] | 4.29 |
| HDPLWRRICKKYWLISEEEKTQKN [H8I] | 1.63 |
| HDPLWRRTCKKYWLISEEEKTQKN [H8T] | 2.79 |
| HDPLWRRVCKKYWLISEEEKTQKN [H8V] | 2.56 |
| HDPLWRRECKKYWLISEEEKTQKN [H8E] | 3.63 |
| HDPLWRRACKKYWLISEEEKTQKN [H8A] | 2.63 |
| HDPLWRRRCKKYWLISEEEKTQKN [H8R] | 3 |
| HDPLWRRQCKKYWLISEEEKTQKN [H8Q] | 3.72 |
| HDPLWRRGCKKYWLISEEEKTQKN [H8G] | 3.31 |
| HDPLWRRKCKKYWLISEEEKTQKN [H8K] | 2.89 |
| HDPLWRRCCKKYWLISEEEKTQKN [H8C] | 2.03 |
| HDPLWRRMCKKYWLISEEEKTQKN [H8M] | 2.23 |
| HDPLWRRWCKKYWLISEEEKTQKN [H8W] | 1.88 |
| HDPLWRRSCKKYWLISEEEKTQKN [H8S] | 2.73 |
| HDPLLRRHCKKYWLISEEEKTQKN [W5L] | 4.35 |
| HDPLYRRHCKKYWLISEEEKTQKN [W5Y] | 4.71 |

| Variant | protein stability index |
| --- | --- |
| HDPLMRRHCKKYWLISEEEKTQKN [W5M] | 4.39 |
| HDPLDRRHCKKYWLISEEEKTQKN [W5D] | 4.18 |
| HDPLCRRHCKKYWLISEEEKTQKN [W5C] | 3.77 |
| HDPLFRRHCKKYWLISEEEKTQKN [W5F] | 4.56 |
| HDPLSRRHCKKYWLISEEEKTQKN [W5S] | 4.08 |
| HDPLRRRHCKKYWLISEEEKTQKN [W5R] | 3.42 |
| HDPLIRRHCKKYWLISEEEKTQKN [W5I] | 3.99 |
| HDPLGRRHCKKYWLISEEEKTQKN [W5G] | 3.96 |
| HDPLKRRHCKKYWLISEEEKTQKN [W5K] | 3.62 |
| HDPLVRRHCKKYWLISEEEKTQKN [W5V] | 3.81 |
| HDPLARRHCKKYWLISEEEKTQKN [W5A] | 4.33 |
| HDPLERRHCKKYWLISEEEKTQKN [W5E] | 4.07 |
| HDPLQRRHCKKYWLISEEEKTQKN [W5Q] | 4.25 |
| HDPLPRRHCKKYWLISEEEKTQKN [W5P] | 3.78 |
| HDPLTRRHCKKYWLISEEEKTQKN [W5T] | 4.76 |
| HDPLNRRHCKKYWLISEEEKTQKN [W5N] | 3.89 |
| HDPLHRRHCKKYWLISEEEKTQKN [W5H] | 3.94 |
| HDPFWRRHCKKYWLISEEEKTQKN [L4F] | 3.52 |
| HDPPWRRHCKKYWLISEEEKTQKN [L4P] | 3.73 |
| HDPTWRRHCKKYWLISEEEKTQKN [L4T] | 4.35 |
